Measurements reported in patent US20220332848A1.

What was measured:
CD47 = CD47 (UniProt Q08722); experiment: FACS binding CHO-K1 cells expressing CD47
human CTLA-4 (human) = human CTLA-4 (human) (UniProt P16410); experiment: FACS binding CHO-K1 cells expressing human CTLA-4
Chain of human CTLA-4 (human) (P16410 36-223): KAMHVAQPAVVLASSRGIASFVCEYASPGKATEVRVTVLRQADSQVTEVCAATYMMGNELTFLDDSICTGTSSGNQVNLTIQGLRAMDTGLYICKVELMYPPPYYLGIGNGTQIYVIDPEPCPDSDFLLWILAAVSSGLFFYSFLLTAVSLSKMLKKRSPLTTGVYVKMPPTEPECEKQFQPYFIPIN

Chain of CD47 (Q08722 19-323): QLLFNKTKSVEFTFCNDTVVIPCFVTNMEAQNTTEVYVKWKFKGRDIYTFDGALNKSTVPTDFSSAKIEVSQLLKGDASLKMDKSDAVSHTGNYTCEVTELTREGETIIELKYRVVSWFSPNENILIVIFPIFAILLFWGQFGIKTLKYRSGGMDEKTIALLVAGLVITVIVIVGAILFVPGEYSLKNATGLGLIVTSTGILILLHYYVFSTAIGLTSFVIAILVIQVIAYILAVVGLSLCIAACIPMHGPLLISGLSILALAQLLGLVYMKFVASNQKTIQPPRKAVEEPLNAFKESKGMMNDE

human IgG
EC50 (CD47): 3.85 nM | EC50 (human CTLA-4 (human)): 42.1 nM
